B1: library; numbered along this chain (parent)
chain: MATDAALRRLLRLHRTEIAVAVDSAFPLLHALADHDVVPEDKFQETLHLKEKEGCPQAFHALLSWLLTQDSTAILDFWRVLFKDYNLERYGRLQPILDSFPKDVDLSQPRKGRKPPAVPKALVPPPRLPTKRKASEEARAAAPAALTPRGTASPGSQLKAKPPKKPESSAEQQRLPLGNGIQTMSASVQRAVAMSSGDVPGARGAVEGILIQQVFESGGSKKCIQVGGEFYTPSKFEDSGSGKNKARSSSGPKPLVRAKGAQGAAPGGGEARLGQQGSVPAPLALPSDPQLHQKNEDECAVCRDGGELICCDGCPRAFHLACLSPPLREIPSGTWRCSSCLQATVQEVQPRAEEPRPQEPPVETPLPPGLRSAGEEVRGPPGEPLAGMDTTLVYKHLPAPPSAAPLPGLDSSALHPLLCVGPEGQQNLAPGARCGVCGDGTDVLRCTHCAAAFHWRCHFPAGTSRPGTGLRCRSCSGDVTPAPVEGVLAPSPARLAPGPAKDDTASHEPALHRDDLESLLSEHTFDGILQWAIQSMARPAAPFPS

Variants of: B1
Experiment: AIRE transcriptional activation functional score (insulin promoter-GFP; nonsense median 0, synonymous median 1) (normalised score); higher = higher AIRE activity (more reporter activation)
Details: with insulin promoter-GFP reporter in HEK293
Outline: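 Flp-In T-REx HEK293 landing-pad cells carrying an insulin core promoter-GFP reporter received codon-optimized AIRE NNN-codon libraries (three regions) through Bxb1 recombinase. Sorting of mCherry+, BFP− integrants took place at day 7, followed by 7 days of expansion and tile-sequencing of top 10% GFP and unselected integrant populations. A functional score was derived from select versus non-select variant enrichment with wild type subtracted. Values from variants reaching 10 counts per million in non-select were set to nonsense median 0 and synonymous median 1 and averaged over biological replicates.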

AIRE transcriptional activation functional score: each site, then its substitutions
G424: K 1.04; F 1.64; H 0.363; T 1.59; E 0.64; P 1.24; I -0.488; L 1.08; Q 1.49; W 1.26; Y 0.738; C 1.41; V 1.25; M 0.308; S 1.19; R 1.03; D 1; N 0.684; A 1.25
Q425: N 0.869; R 0.94; M 0.974; A 0.368; Y 1.28; G 1.04; E 0.587; L 1.18; W 1.28; D 0.431; P 1.21; C 0.714; K 0.902; I 1.07; T 0.973; F 1.13; V 0.734; S 1.06; H 1.3
P422: Y 1.42; T 0.528; W 1.69; D 1.69; E 0.766; A 0.724; G 1.53; S 0.814; I 1.26; N 1.18; C 1.28; V 0.479; R 0.868; H 0.986; Q 0.91; L 1.3; F 0.774
G421: Y -0.246; K 0.558; C 1.58; T 0.472; V 0.933; M 0.931; E 1.65; R 0.926; W 1.43; A 0.875; N 0.869; P 1.4; F 1.33; L 0.327; H -0.132; S 0.74; D 1.83
R433: F 0.678; L 0.786; P 0.565; A 0.402; M 0.755; S 0.734; Q 1.13; K 1.03; C 0.922; G 0.748; D 0.895; H 0.569; E 1.39; T 0.808; N 1.15; I 0.308
L428: W 1.31; H 1.48; C 0.816; E 0.885; K 0.817; I 1.22; F 1.09; A 1.08; Q 1.01; R 0.941; D 0.545; S 1.15; G 0.959; Y 1.05; P 0.955; T 0.817; M 1.32; N 1.08
L417: F 1.3; E 0.739; S 0.626; R 0.707; V 0.708; G 0.679; I 0.855; K 0.833; Y 1.21; H 0.632; A 0.892; Q 1.07; P 0.784; N 1.05; W 1.3; D 1.12; T 0.966; C 1.24
V420: Y 0.639; D 0.683; L 0.722; F 1.03; P 1.01; C 1.11; T 0.608; A 1.04; Q -0.123; G 0.846; K 0.606; I 0.811; E 0.728; M 1.43; R 1.03; W 1.35; S 1.07; H 0.593
G431: K 0.71; D 0.852; T 1.21; A 1.23; Q 0.86; E 0.793; S 0.927; R 0.579; N 0.881; Y 0.576; V 1.13; W 1.29; I 1.32; H 1.39; L 0.794; C 0.854; F 1.14; P 0.983; M 0.776
C419: H 0.558; V 1.22; W 1.21; R 0.836; I 0.681; K 1.17; L 1.33; P 1.24; N 0.258; G 0.96; E 1.04; D 0.584; T 1.2; A 0.69; S 0.615; Q 1.3; F 1.64
N427: Y 1.47; F 1.42; I 1; S 1.1; T 1.07; V 1.06; R 0.362; C 1.1; E 1.12; D 1.07; M 1.81; L 1.51; P 1.18; H 0.904; W 1.3; A 1.33; G 1; Q 0.539; K 0.842
P416: A 0.819; C 1.46; W 1.5; T 0.937; Y 0.419; K 0.665; R 0.68; I 0.0784; L 0.688; M 1.55; D -0.251; G 0.937; V 0.526; Q 1.49; H -0.0276; F 0.451; N 1.21; S 1.09
A432: G 1.22; N -0.334; P 0.463; M 0.0975; F 1.06; W 1.88; C 1.2; L 0.822; Y 1.28; S 0.578; I 0.534; V 0.872; E 1.16; R 0.993; Q 0.748; T 0.81; H 0.437; D 0.806; K 0.599
H415: Y 1.42; T 0.92; R 0.811; P 1.11; S 0.782; N 1.22; W 0.671; M -0.327; V 1.06; Q 0.783
P430: S 0.992; G 1.21; I 1.28; C 0.92; A 0.806; Y 1.03; H 1.32; F 1.69; W 1.3; L 1.18; R 0.778; D 0.951; E 1.01; Q 1.01; T 0.77; V 0.632; K 0.999; N 1.14
A429: S 1.09; Q 1.32; F 1.34; V 1.01; Y 0.892; E 0.833; D 1.07; P 0.614; G 0.724; N 1.09; K 0.0334; L 1.06; H 1.47; W 1.2; C 0.771; I 1.14; R 0.843; T 1.12
L418: P 0.93; Y 1.42; D 0.816; A 1.06; T 0.829; S 0.85; V 1.04; C 1.16; F 1.42; I 0.6; R 0.67; G 1; N 1.02; K 0.4; E 0.507; M 0.207; H 0.443; Q 1.28
Q426: Y 1.54; V 1.29; M 1.34; I 0.87; P 1.09; A -0.467; R 0.722; W 1.64; K 1.16; C 1.4; G 0.866; S 0.831; E 1.07; D 0.796; L 1.06; H 1.18; F 1.34; T 1.17; N 1.23
E423: G 1.34; A 1.2; H 1.2; I 1.05; D 1.25; S 1.27; R 0.409; C 0.459; F 1.02; K 0.795; P 0.817; V 1.2; T 0.737; L 1.28; M 0.551; Q 0.981; Y 1.38

— the supplement of paper PMC12667976
